Assays:
[1] = target: Y1 receptors in anaesthetised rats (rat); assay: cell-based or functional assay
[2] = target: T1, human neuropeptide Y Y2 receptor on SMS-MSN cells (human, UniProt P49146 1-381); assay: competition with 30 pM [125I]NPY on SMS-MSN cells (human Y2), filtration
T1 construct: whole, on cells; also called NPY Y2 receptor; SMS-MSN (Y2)
T1 sequence (looked up): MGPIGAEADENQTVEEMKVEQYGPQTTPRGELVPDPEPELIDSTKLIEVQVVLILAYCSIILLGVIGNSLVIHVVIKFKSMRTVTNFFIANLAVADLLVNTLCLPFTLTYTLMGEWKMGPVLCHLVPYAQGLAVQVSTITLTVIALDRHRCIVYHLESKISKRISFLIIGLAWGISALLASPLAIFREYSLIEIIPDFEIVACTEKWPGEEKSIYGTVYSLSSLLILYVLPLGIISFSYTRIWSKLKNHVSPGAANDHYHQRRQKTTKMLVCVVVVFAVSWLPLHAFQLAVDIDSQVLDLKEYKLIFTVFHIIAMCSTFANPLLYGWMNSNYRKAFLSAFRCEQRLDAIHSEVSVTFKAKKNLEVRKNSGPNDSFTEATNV

[3] = target: Y2-like receptors in anaesthetised rats (rat); assay: cell-based or functional assay
[4] = target: T2, human neuropeptide Y Y1 receptor on SK-N-MC cells (human, UniProt P25929 1-384); assay: competition with 30 pM [125I]NPY on SK-N-MC cells (human Y1), filtration
T2 construct: whole, on cells; also called NPY Y1 receptor; SK-N-MC (Y1)
T2 sequence (looked up): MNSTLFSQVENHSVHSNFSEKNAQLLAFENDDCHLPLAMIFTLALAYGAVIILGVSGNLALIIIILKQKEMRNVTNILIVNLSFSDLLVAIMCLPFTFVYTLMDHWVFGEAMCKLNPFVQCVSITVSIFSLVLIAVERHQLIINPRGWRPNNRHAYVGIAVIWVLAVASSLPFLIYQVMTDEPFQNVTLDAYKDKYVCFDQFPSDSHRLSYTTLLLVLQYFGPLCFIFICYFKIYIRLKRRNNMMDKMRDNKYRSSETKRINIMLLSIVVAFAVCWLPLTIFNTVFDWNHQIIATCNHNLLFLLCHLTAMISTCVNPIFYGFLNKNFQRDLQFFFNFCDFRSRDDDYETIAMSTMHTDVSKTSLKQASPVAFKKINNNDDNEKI

B1: Neuropeptide Y (ligand)
peptide: not shown
For B1, the “Increase in BP (rel to NPY), anaesthetised rats” value (“Increase in BP (rel to NPY)” for short) [1] was 1 relative to NPY.

B2: Ac[A24,26,27,30,31,L28]NPY24-36 (peptide)
peptide: Ac-ARAALNAATRQRY-NH2
In the case of B2, the IC50 [2] is reported as 3.16 nM, the “EC50 of the change in pulse interval (PI %), vagal stimulation in anaesthetised rats” value [3] is reported as 0.56 nmol and the “Increase in BP (rel to NPY)” value [1] is reported as 0 relative to NPY.

B3: Ac[A26,27,L28,31]NPY24-36 (peptide)
peptide: Ac-LRAALNLLTRQRY-NH2
B3 was tested, and the “EC50 of the change in pulse interval (PI %), vagal stimulation in anaesthetised rats” value [3] was 1 nmol and the “Increase in BP (rel to NPY)” value [1] was 0 relative to NPY.

B4: AcNPY24-36 (peptide, UniProt P01303 52-64, looked up)
peptide: Ac-LRHYINLITRQRY-NH2
In the case of B4, the “Increase in BP (rel to NPY)” value [1] is reported as 0 relative to NPY.

B5: Ac[L28,L31]NPY24-36 (peptide)
peptide: Ac-LRHYLNLLTRQRY-NH2
For B5, the “EC50 of the change in pulse interval (PI %), vagal stimulation in anaesthetised rats” value [3] was 3.16 nmol and the “Increase in BP (rel to NPY)” value [1] was 0 relative to NPY.

B6: Ac[A28,L31]NPY24-36 (peptide)
peptide: Ac-LRHYANLLTRQRY-NH2
For B6, the IC50 [2] was 12.6 nM, the “EC50 of the change in pulse interval (PI %), vagal stimulation in anaesthetised rats” value [3] was 2.75 nmol and the “Increase in BP (rel to NPY)” value [1] was 0 relative to NPY.

B7: Ac[L28,A31]NPY24-36 (peptide)
peptide: Ac-LRHYLNLATRQRY-NH2
With B7 the IC50 [2] was 0.06 nM, the “EC50 of the change in pulse interval (PI %), vagal stimulation in anaesthetised rats” value [3] was 0.78 nmol and the “Increase in BP (rel to NPY)” value [1] was 0 relative to NPY.

B8: Ac[A25,L28,L31]NPY24-36 (peptide)
peptide: Ac-LAHYLNLLTRQRY-NH2
In the case of B8, the IC50 [2] is reported as 2 nM, the “EC50 of the change in pulse interval (PI %), vagal stimulation in anaesthetised rats” value [3] is reported as 1.58 nmol and the “Increase in BP (rel to NPY)” value [1] is reported as 0 relative to NPY.

B9: Ac[A25,R28,L31]NPY24-36 (peptide)
peptide: Ac-LAHYRNLLTRQRY-NH2
For B9, the IC50 [2] was 0.1 nM, the “EC50 of the change in pulse interval (PI %), vagal stimulation in anaesthetised rats” value [3] was 1.95 nmol and the “Increase in BP (rel to NPY)” value [1] was 0 relative to NPY. The IC50 [4] was 692 nM.

B10: Ac[A24,L28,L31]NPY24-36 (peptide)
peptide: Ac-ARHYLNLLTRQRY-NH2
In the case of B10, the IC50 [2] is reported as 19.2 nM, the “EC50 of the change in pulse interval (PI %), vagal stimulation in anaesthetised rats” value [3] is reported as 0.46 nmol and the “Increase in BP (rel to NPY)” value [1] is reported as 0 relative to NPY.

B11: Ac[L28,A29,L31]NPY24-36 (peptide)
peptide: Ac-LRHYLALLTRQRY-NH2
B11 was tested, and the IC50 [2] was 0.05 nM, the “EC50 of the change in pulse interval (PI %), vagal stimulation in anaesthetised rats” value [3] was 1.48 nmol and the “Increase in BP (rel to NPY)” value [1] was 0 relative to NPY.

B12: Ac[A27,L28,L31]NPY24-36 (peptide)
peptide: Ac-LRHALNLLTRQRY-NH2
In the case of B12, the IC50 [2] is reported as 0.13 nM, the “EC50 of the change in pulse interval (PI %), vagal stimulation in anaesthetised rats” value [3] is reported as 0.52 nmol and the “Increase in BP (rel to NPY)” value [1] is reported as 0 relative to NPY.

B13: Ac[L28,L31,A32]NPY24-36 (peptide)
peptide: Ac-LRHYLNLLARQRY-NH2
B13 was tested, and the IC50 [2] was 2.51 nM, the “EC50 of the change in pulse interval (PI %), vagal stimulation in anaesthetised rats” value [3] was 6.46 nmol and the “Increase in BP (rel to NPY)” value [1] was 0 relative to NPY.

B14: Ac[A26,L28,L31]NPY24-36 (peptide)
peptide: Ac-LRAYLNLLTRQRY-NH2
For B14, the IC50 [2] was 63.1 nM, the “EC50 of the change in pulse interval (PI %), vagal stimulation in anaesthetised rats” value [3] was 1.26 nmol and the “Increase in BP (rel to NPY)” value [1] was 0 relative to NPY.

B15: Ac[A24,A27,L28,L31]NPY24-36 (peptide)
peptide: Ac-ARHALNLLTRQRY-NH2
notes: also called Ac[Ala24, Ala27, Leu28, Leu31]NPY(24-36)
For B15, the IC50 [2] was 0.03 nM, the “EC50 of the change in pulse interval (PI %), vagal stimulation in anaesthetised rats” value [3] was 0.89 nmol and the “Increase in BP (rel to NPY)” value [1] was 0 relative to NPY.

B16: Ac[L28,A30,L31]NPY24-36 (peptide)
peptide: Ac-LRHYLNALTRQRY-NH2
In the case of B16, the IC50 [2] is reported as 6.31 nM, the “EC50 of the change in pulse interval (PI %), vagal stimulation in anaesthetised rats” value [3] is reported as 0.39 nmol and the “Increase in BP (rel to NPY)” value [1] is reported as 0 relative to NPY.

Reference: patent US6696409 (PRINCE OF WALES MEDICAL RESEARCH INSTITUTE LIMITED POWMR, dated 2004)
